Assay results reported in paper PMC5542402.
Like-named read-outs stand apart in the source and are kept apart here.

B1: sel36 (dsDNA)
DNA 1: GATTCACAGCTGATTCACAGCATCTAG
DNA 2: CTAGATGCTGTGAATCAGCTGTGAATC
B2: sel36m (dsDNA)
DNA 1: GATTCACAGCTGATACACAGGATCTAG
DNA 2: CTAGATCCTGTGTATCAGCTGTGAATC

Tests used:
PhoP [1] = molecular target: T1, PhoP (Mycobacterium tuberculosis, UniProt P71814 1-247); experiment: ITC
PhoP [2] = molecular target: T1, PhoP; experiment: ITC; remark: listed apart in the source

| Binder | Kd (PhoP [1]) | Kd (PhoP [2]) |
| --- | --- | --- |
| B1 | 8.03 ± 3.42 nM | – |
| B2 | – | 32.3 ± 4.12 nM |
